This assay addresses full length TCF1. The assay can be described thus: cell-based or functional assay.

Our source for the activation of luciferase reporter gene driven by the LEF1 promoter (-672, +305), co-transfection in 2017 T lymphocytes values is patent US7413873.

Sequence of β-catenin (wild type) (P35222 2-781): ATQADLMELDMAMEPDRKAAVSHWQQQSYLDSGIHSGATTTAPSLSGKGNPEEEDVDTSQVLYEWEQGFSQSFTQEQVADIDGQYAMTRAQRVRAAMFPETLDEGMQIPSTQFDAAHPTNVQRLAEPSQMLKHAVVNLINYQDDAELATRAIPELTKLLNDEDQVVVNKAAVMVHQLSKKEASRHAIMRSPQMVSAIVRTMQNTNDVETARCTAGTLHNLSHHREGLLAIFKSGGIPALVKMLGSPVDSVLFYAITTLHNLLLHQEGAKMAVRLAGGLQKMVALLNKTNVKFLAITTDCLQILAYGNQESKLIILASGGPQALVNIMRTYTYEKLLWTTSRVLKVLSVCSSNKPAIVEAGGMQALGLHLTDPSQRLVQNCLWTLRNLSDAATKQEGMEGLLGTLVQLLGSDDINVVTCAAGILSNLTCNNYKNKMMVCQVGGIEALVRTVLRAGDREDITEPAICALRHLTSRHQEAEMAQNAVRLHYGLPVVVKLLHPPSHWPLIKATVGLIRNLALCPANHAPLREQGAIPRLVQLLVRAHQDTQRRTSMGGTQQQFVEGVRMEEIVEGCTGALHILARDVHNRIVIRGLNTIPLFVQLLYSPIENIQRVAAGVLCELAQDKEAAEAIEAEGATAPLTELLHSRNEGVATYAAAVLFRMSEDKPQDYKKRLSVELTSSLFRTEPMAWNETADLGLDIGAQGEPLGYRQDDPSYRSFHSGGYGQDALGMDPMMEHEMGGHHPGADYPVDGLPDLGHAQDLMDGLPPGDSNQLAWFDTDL

For β-catenin (wild type), the activation of luciferase reporter gene driven by the LEF1 promoter (-672, +305), co-transfection in 2017 T lymphocytes is 7 fold.
